Experimental findings from patent CN115028723A (dated 2022) are described below.

For the experiment, the target named is T1, 重组人IL-1β (novoprotein, CG93) (human, UniProt P01584 117-269).
T1 construct: The supplier is stated for the immunogen; also called rHuman IL-1β; hIL-1β
In words: Biacore SPR, antibody captured on Protein A chip, IL-1β as analyte, 1:1 Langmuir fit.

B1: 阳性对照抗体CAN (卡纳单抗, Canakinumab) (antibody, human IgG1, kappa, V domains shown)
VH: QVQLVESGGGVVQPGRSLRLSCAASGFTFSVYGMNWVRQAPGKGLEWVAIIWYDGDNQYYADSVKGRFTISRDNSKNTLYLQMNGLRAEDTAVYYCARDLRTGPFDYWGQGTLVTVSS
VL: EIVLTQSPDFQSVTPKEKVTITCRASQSIGSSLHWYQQKPDQSPKLLIKYASQSFSGVPSRFSGSGSGTDFTLTINSLEAEDAAAYYCHQSSSLPFTFGPGTKVDIKR
notes: Signal peptide added for expression is left out; also called Ilaris
Molecule B1 registered a dissociation constant (Kd) of 0.0153 nM, a koff of 6.01e-05 s⁻¹ and an on-rate (kon) of 3.93e+06 M⁻¹ s⁻¹.
